{
  "source": "paper doi:10.1101/2025.03.09.641110",
  "about": "(bioRxiv, 2025)",
  "data": [
    {"target": "extracellular domain of human PD-1 (Programmed cell death protein 1) (Homo sapiens, UniProt Q15116)", "sequence (Q15116 25-170)": "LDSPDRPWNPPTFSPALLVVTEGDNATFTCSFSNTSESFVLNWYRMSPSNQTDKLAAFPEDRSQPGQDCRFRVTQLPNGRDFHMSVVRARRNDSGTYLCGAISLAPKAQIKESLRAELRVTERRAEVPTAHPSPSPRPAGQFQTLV", "experiment": "SPR", "units": {"Kd": "nM"}, "values": [
      {"binder": "ALX07xh-05 (direct CDR-grafted humanized ALX07) (antibody, V domains shown) VH: QVTLKESGPALVKPTQTLTLTCTFSGFSLSTSALGVGWIRQPPGKALEWLAHIWWNDVKRSNPALKGRLTISKDTSKNQVVLTMTNMDPVDTATYYCARSYGNHWYFDVWGQGTLVTVSS VL: DIVMTQSPDSLAVSLGERATINCKASQSVSNDVAWYQQKPGQPPKLLIYYAFTRYIGVPDRFSGSGSGTDFTLTISSLQAEDVAVYYCQQDYISPYTFGQGTKLEIK", "Kd": 140},
      {"binder": "humanized ALX07 (CDR graft) with the S67Y back mutation in the light chain alone (antibody, V domains shown) VH: QVTLKESGPALVKPTQTLTLTCTFSGFSLSTSALGVGWIRQPPGKALEWLAHIWWNDVKRSNPALKGRLTISKDTSKNQVVLTMTNMDPVDTATYYCARSYGNHWYFDVWGQGTLVTVSS VL: DIVMTQSPDSLAVSLGERATINCKASQSVSNDVAWYQQKPGQPPKLLIYYAFTRYIGVPDRFSGSGYGTDFTLTISSLQAEDVAVYYCQQDYISPYTFGQGTKLEIK", "Kd": 2.01},
      {"binder": "chimeric ALX07 (murine ALX07 variable regions, IgG4 chimeric antibody) (antibody, V domains shown) VH: QVTLKESGPGILQPSQTLSLTCSFSGFSLSTSALGVGWIRQPPGKGLVWLAHIWWNDVKRSNPALKGRLTISKDTSSSQVFLNIANVDTADTATYYCARSYGNHWYFDVWGAGTTVTVSS VL: SVVMTQTPKFLLVSAGDRVTIACKASQSVSNDVAWFQQKPGQSPKLLIYYAFTRYIGVPDRFTASGYGTDFTFTISTVQAEDLAIYFCQQDYISPYTFGGGTKLEIK", "Kd": 1.31}
    ]}
  ]
}
